# Test results taken from IntAct's records for PubMed 25991726.
# B1: Ribosome maturation protein SBDS (Homo sapiens), Q9Y3A5 (parent)
# chain: MSIFTPTNQIRLTNVAVVRMKRAGKRFEIACYKNKVVGWRSGVEKDLDEVLQTHSVFVNVSKGQVAKKEDLISAFGTDDQTEICKQILTKGEVQVSDKERHTQLEQMFRDIATIVADKCVNPETKRPYTVILIERAMKDIHYSVKTNKSTKQQALEVIKQLKEKMKIERAHMRLRFILPVNEGKKLKEKLKPLIKVIESEDYGQQLEIVCLIDPGCFREIDELIKKETKGKGSLEVLNLKDVEEGDEKFE
# partner: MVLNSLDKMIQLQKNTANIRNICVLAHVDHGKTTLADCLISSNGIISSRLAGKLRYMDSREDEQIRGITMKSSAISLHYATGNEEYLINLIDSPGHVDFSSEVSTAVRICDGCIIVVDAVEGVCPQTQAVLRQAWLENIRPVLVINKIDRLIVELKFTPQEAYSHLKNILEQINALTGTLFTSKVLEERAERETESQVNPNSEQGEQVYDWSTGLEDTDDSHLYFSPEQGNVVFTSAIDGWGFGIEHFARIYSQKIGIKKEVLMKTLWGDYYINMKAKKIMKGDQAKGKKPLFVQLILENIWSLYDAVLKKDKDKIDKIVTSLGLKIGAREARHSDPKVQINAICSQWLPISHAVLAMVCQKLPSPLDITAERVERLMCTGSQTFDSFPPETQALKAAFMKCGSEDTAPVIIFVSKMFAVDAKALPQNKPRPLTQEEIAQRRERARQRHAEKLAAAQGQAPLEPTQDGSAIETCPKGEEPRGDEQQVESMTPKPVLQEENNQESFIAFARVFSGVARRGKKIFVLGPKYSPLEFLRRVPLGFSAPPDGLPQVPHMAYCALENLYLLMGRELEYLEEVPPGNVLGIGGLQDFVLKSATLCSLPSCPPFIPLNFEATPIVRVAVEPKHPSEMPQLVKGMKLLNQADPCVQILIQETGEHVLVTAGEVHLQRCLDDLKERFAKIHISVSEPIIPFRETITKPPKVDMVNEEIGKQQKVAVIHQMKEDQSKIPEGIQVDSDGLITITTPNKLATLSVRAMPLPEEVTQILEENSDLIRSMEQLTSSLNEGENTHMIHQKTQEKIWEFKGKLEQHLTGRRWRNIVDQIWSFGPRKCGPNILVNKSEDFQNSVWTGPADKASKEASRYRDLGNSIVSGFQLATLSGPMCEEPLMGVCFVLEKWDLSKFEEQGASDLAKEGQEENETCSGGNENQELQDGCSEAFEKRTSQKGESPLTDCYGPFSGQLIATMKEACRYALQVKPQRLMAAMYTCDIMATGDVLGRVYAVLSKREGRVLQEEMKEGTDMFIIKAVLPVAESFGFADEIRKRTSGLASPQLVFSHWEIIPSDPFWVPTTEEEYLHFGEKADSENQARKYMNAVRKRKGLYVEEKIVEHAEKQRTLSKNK
# Variants of: B1
# Details: with efl1_human EFL1, Q7Z2Z2
row,Variant,effect of a mutation on the interaction
1,S143L,decreasing interaction strength
